The target of data set [1] is human deoxyuridine 5′-triphosphate nucleotidohydrolase (dUTPase), nuclear isoform (human).
For data set [2], the target named is Staphylococcal repressor protein Stl_(SaPIBov1) (Staphylococcus aureus) (UniProt Q9F0J8). Put plainly: ITC; Stl in the cell, hDUT in the syringe; 20 °C; 20 mM HEPES pH 7.5, 300 mM NaCl, 5 mM MgCl2, 1 mM TCEP; one set of independent sites; mean and SD of three measurements; concentrations of protomers; apparent affinity. (ITC needs no label: the signal is the heat of the interaction.)

In data set [3] the target is human deoxyuridine 5′-triphosphate nucleotidohydrolase (dUTPase), nuclear isoform (human). Put plainly: native MS; ESI-QTOF, positive mode; 5 mM NH4HCO3 pH 7.5; hDUT, Stl or both at ca. 0.5 µM monomer.
For data set [4], the target named is Staphylococcal repressor protein Stl_(SaPIBov1) (Staphylococcus aureus) (UniProt Q9F0J8). Described as above.
Data set [5] has as its target human deoxyuridine 5′-triphosphate nucleotidohydrolase (dUTPase), nuclear isoform (human). Put plainly: SEC-SAXS; hDUT:Stl complex (100 µL at ~8 mg/ml) on an S200 Increase 10/300 column in 50 mM HEPES pH 7.5, 300 mM NaCl, 5 mM MgCl2, in line with SAXS; two regions of the peak analysed. For orientation: Size exclusion chromatography separates by hydrodynamic size, large species first.

Data set [6] concerns the target Staphylococcal repressor protein Stl_(SaPIBov1) (Staphylococcus aureus) (UniProt Q9F0J8). The description is as above.
The target in data set [7] is human deoxyuridine 5′-triphosphate nucleotidohydrolase (dUTPase), nuclear isoform (human). Put plainly: SAXS; batch measurements of hDUT (0.2-2.0 mg/mL) and of Stl (0.2-0.9 mg/mL) alone; 50 mM HEPES pH 7.5, 300 mM NaCl, 5 mM MgCl2; 20 °C in the text, 283 K in Table 1.
The target in a further data set is Stl (StlSaPIBov1) (Staphylococcus aureus pathogenicity …, UniProt Q9F0J8 1-267). Put plainly: EMSA; no hDUT; 100 mM NaCl; […]; binding buffer pH not stated. To be noted: protein: recombinant; tags: GST-tag cleaved by thrombin, His-tag removed; N-terminal vector-derived extension remains; chain copies: 2; blunt. (A gel shift assay detects complexes by their altered migration in electrophoresis.)

“Staphylococcal repressor protein Stl_(SaPIBov1) (from UniProt Q9F0J8 1-267) (natural protein)”: the maximal inhibition of hDUT catalytic activity by Stl in data set [1] was 70%.

Regarding “human deoxyuridine 5′-triphosphate nucleotidohydrolase (dUTPase), nuclear isoform (enzyme)”, the Kd in data set [2] was determined as 230 nM. Moreover, the stoichiometry N (hDUT protomer per Stl protomer) in data set [2] turned out to be 1.27. Further, the stoichiometry N in data set [3], in data set [5] and in data set [7] was 3 in each case. In data set [4], this molecule showed a stoichiometry N (hDUT:Stl (3:2)) of 1.5. This molecule also displayed a stoichiometry N (hDUT:Stl (3:2, region 2)) in data set [6] of 1.5. Besides, the stoichiometry N (hDUT:Stl (3:3, region 1)) in data set [6] is 1.

B1: interR 43 bp (dsDNA)
DNA 1: ATGTTGAAATAAATATCTCGATGTGAGATAATTTGTTCGAGGA
DNA 2: TCCTCGAACAAATTATCTCACATCGAGATATTTATTTCAACAT
With B1, the binding result with Stl (StlSaPIBov1) is “binds”.

In general, stoichiometry N refers to a count of units in the complex or per binding partner.

(Values after article PMC5847570, “Structural model of human dUTPase in complex with a novel proteinaceous inhibitor”.)
